Measurements from US20200270588A1, “GLUCOSYL TRANSFERASE POLYPEPTIDES AND METHODS OF USE” (Syngenta Participations AG, priority 2017, published 2020).
Substitutions are numbered along the chain they refer to. In names and notes the source's numbering stands.

B1: V116I: bx9 SEQ ID NO:1 mutant (protein)
chain: MASSRTGAGAGGRVVVFPFPFQGHFNPVMRLARALHARGLAITVFHSGALDPADYPADYRFVPVTVEADPKLLASEDIAAIVTTLNASCDAPFRARLSALLAAEGRDSVRCVFTDISWNAVLTASSDLGVPALGMMTASAASLRDYMAYRTLIDKGYLPVKEERKEDPVPELPPYLVKDLLRVDTSDLEEFAELLARTVTAARRASGLIFNTFPLIETDTLAEIHKALSVPVFAVAPLNKLVPTATASLHGVVQADRGCLQWLDTQQPGSVLYVSFGSMAAMDPHEFVELAWGLADSKRPFVWVVRPNLIRGFESGALPDGVEDEVRGRGIVVAWAPQEEVLAHPAVGGFLTHNGWNSTVEAISEGVPMVCCPRHGDQFGNMRYVCDVWKVGTELVGEQLERGQVKAAIDRLFGTKEGEEIKERMKEFKIAAAKGIGIGVDVDETASPRTDLTDLVDLIKSF
modifications: Zea mays
B2: M135T: bx9 SEQ ID NO:1 mutant (protein)
chain: B1 chain with I116V, M135T
modifications: Zea mays
B3: M135C: bx9 SEQ ID NO:1 mutant (protein)
chain: B1 chain with I116V, M135C
modifications: Zea mays
B4: M135L: bx9 SEQ ID NO:1 mutant (protein)
chain: B1 chain with I116V, M135L
modifications: Zea mays
B5: I153T: bx9 SEQ ID NO:1 mutant (protein)
chain: B1 chain with I116V, I153T
modifications: Zea mays
B6: I153C: bx9 SEQ ID NO:1 mutant (protein)
chain: B1 chain with I116V, I153C
modifications: Zea mays
B7: I153K: bx9 SEQ ID NO:1 mutant (protein)
chain: B1 chain with I116V, I153K
modifications: Zea mays
B8: I153V: bx9 SEQ ID NO:1 mutant (protein)
chain: B1 chain with I116V, I153V
modifications: Zea mays
B9: I153L: bx9 SEQ ID NO:1 mutant (protein)
chain: B1 chain with I116V, I153L
modifications: Zea mays
B10: I153M: bx9 SEQ ID NO:1 mutant (protein)
chain: B1 chain with I116V, I153M
modifications: Zea mays
B11: I153Y: bx9 SEQ ID NO:1 mutant (protein)
chain: B1 chain with I116V, I153Y
modifications: Zea mays
B12: I153Q: bx9 SEQ ID NO:1 mutant (protein)
chain: B1 chain with I116V, I153Q
modifications: Zea mays
B13: I153R: bx9 SEQ ID NO:1 mutant (protein)
chain: B1 chain with I116V, I153R
modifications: Zea mays
B14: I153F: bx9 SEQ ID NO:1 mutant (protein)
chain: B1 chain with I116V, I153F
modifications: Zea mays
B15: L194G: bx9 SEQ ID NO:1 mutant (protein)
chain: B1 chain with I116V, L194G
modifications: Zea mays
B16: L194E: bx9 SEQ ID NO:1 mutant (protein)
chain: B1 chain with I116V, L194E
modifications: Zea mays
B17: L194D: bx9 SEQ ID NO:1 mutant (protein)
chain: B1 chain with I116V, L194D
modifications: Zea mays
B18: L194T: bx9 SEQ ID NO:1 mutant (protein)
chain: B1 chain with I116V, L194T
modifications: Zea mays
B19: L194Q: bx9 SEQ ID NO:1 mutant (protein)
chain: B1 chain with I116V, L194Q
modifications: Zea mays
B20: L194I: bx9 SEQ ID NO:1 mutant (protein)
chain: B1 chain with I116V, L194I
modifications: Zea mays
B21: L194A: bx9 SEQ ID NO:1 mutant (protein)
chain: B1 chain with I116V, L194A
modifications: Zea mays
B22: L194C: bx9 SEQ ID NO:1 mutant (protein)
chain: B1 chain with I116V, L194C
modifications: Zea mays
B23: L194N: bx9 SEQ ID NO:1 mutant (protein)
chain: B1 chain with I116V, L194N
modifications: Zea mays
B24: L194V: bx9 SEQ ID NO:1 mutant (protein)
chain: B1 chain with I116V, L194V
modifications: Zea mays
B25: L195I: bx9 SEQ ID NO:1 mutant (protein)
chain: B1 chain with I116V, L195I
modifications: Zea mays
B26: T198V: bx9 SEQ ID NO:1 mutant (protein)
chain: B1 chain with I116V, T198V
modifications: Zea mays
B27: V199N: bx9 SEQ ID NO:1 mutant (protein)
chain: B1 chain with I116V, V199N
modifications: Zea mays
B28: A202C: bx9 SEQ ID NO:1 mutant (protein)
chain: B1 chain with I116V, A202C
modifications: Zea mays
B29: A202M: bx9 SEQ ID NO:1 mutant (protein)
chain: B1 chain with I116V, A202M
modifications: Zea mays
B30: A202V: bx9 SEQ ID NO:1 mutant (protein)
chain: B1 chain with I116V, A202V
modifications: Zea mays
B31: A202L: bx9 SEQ ID NO:1 mutant (protein)
chain: B1 chain with I116V, A202L
modifications: Zea mays
B32: A202F: bx9 SEQ ID NO:1 mutant (protein)
chain: B1 chain with I116V, A202F
modifications: Zea mays

Experiment: UDP luminescence plate assay of E. coli extracts, saturation mutants of SEQ ID NO: 1, herbicide V
Type: biochemical, Zea mays
Conditions: improvement factor relative to w/t bx9 = 1.0, rounded to nearest 0.5; extract activity basis; compound V
Protocol: Competent BL21 (DE3) cells are transformed as in the foregoing examples and, following seed culturing, grown and autoinduced in plates in a 0.5-1 ml volume of autoinduction medium containing 50 ug/ml kanamycin. Plates are incubated at 37° C. and shaken at 900 rpm. Growth is monitored by taking 20 ul aliquots, diluting 10 fold into flat-bottomed 96 well microtiter plates and reading OD600n at t=0, 1, 2, 2½ and 3 hours if necessary. At a (corrected) OD600 nm˜0.2, plates are transferred to 20° C. and shaken overnight at 900 rpm in a Jencons VWR plate incubator. After ˜18-20 h the final OD600 readings are recorded and the plates centrifuged at 4600 rpm (bench top centrifuge) for 10 min at 4° C. The supernatant is discarded and the pellets then washed with 0.25 ml PBS by repeat centrifugation and removal of supernatant before freezing cell pellets at −80° C. To prepare extracts, plates are allowed to thaw for 30 min and then pellets are resuspended in 0.25 ml of a suitable lysis buffer (for example—50 mM Tris HCL buffer at pH 8.0, 5% glycerol containing 50 mM NaCl and lysonase) mixed, incubated at room temperature for a sufficient time for lysis to be near complete and then centrifuged to remove cell debris and 100 ul of supernatant extract removed to a 96 well V-shaped well plate and stored on ice prior to assay.
Optionally plate assays are stopped with brief heating to 95 C before returning to ice and addition of UDP-Glo detection reagent followed by incubation at lab temperature. […] In addition a UDP standard curve is run alongside each set of plate tests.
Making use of the ELISA assay it is then possible to calculate a specific activity (e.g. in Relative Luminescence Units (RLU)/min/ug bx protein) based upon the amount of each mutant bx9 polypeptide expressed in each well. […] The specific activity of the various test mutant extracts on the same plate are then expressed as a fraction of the specific activity of the w/t bx9 and thus the ‘improvement factor’ versus the w/t expressed as a decimal where, for example, ‘0.5’ means half the specific activity of the wild type and 2.0 means twice the specific activity of the wild type. However, as will be readily apparent to the skilled man, particularly in cases where the UDP assay signal was low (with poor signal to noise versus the background) and/or the ELISA measurement of bx protein also low such a method is prone to generate spurious high specific activity numbers and uncertain numbers.

Molecule | Preferred amino acid substitutions and (IF) based on RLU/min/ul | Most Preferred amino acid substitutions and (IF) based on RLU/min/ul
B1 | L,I(1.0) | 
B2 | T,C,L(1.0) | 
B3 | T,C,L(1.0) | 
B4 | T,C,L(1.0) | 
B5 | T,C,K,V,L,M,Y(1.0); | 
B6 | T,C,K,V,L,M,Y(1.0); | 
B7 | T,C,K,V,L,M,Y(1.0); | 
B8 | T,C,K,V,L,M,Y(1.0); | 
B9 | T,C,K,V,L,M,Y(1.0); | 
B10 | T,C,K,V,L,M,Y(1.0); | 
B11 | T,C,K,V,L,M,Y(1.0); | 
B12 | Q,R,F(1.5) | 
B13 | Q,R,F(1.5) | 
B14 | Q,R,F(1.5) | 
B15 | 1.0 | 
B16 | 1.0 | 

Molecule | Preferred amino acid substitutions and (IF) based on RLU/min/ul | Most Preferred amino acid substitutions and (IF) based on RLU/min/ul
B17 | 1.0 | 
B18 | 1.5 | 
B19 | 1.5 | 
B20 |  | 2.0
B21 |  | 2.5
B22 |  | C,N,V(3.0)
B23 |  | C,N,V(3.0)
B24 |  | C,N,V(3.0)
B25 | I(1.0) | 
B26 |  | V(2.0)
B27 | M,N(1.0) | 
B28 | S,I,C,M(1.0) | 
B29 | S,I,C,M(1.0) | 
B30 | T,I,V,L,F(1.5) | 
B31 | T,I,V,L,F(1.5) | 
B32 | T,I,V,L,F(1.5) | 
